For orientation: TGI means how far tumour growth fell short of that in controls.

Changes are numbered by the printed parent chain. Numbers in names are those of the source.

Two molecules from patent US9969998B2, “Compositions of adenosine deaminase-2 (ADA2), variants thereof and methods of using same” (Halozyme, Inc., priority 2014, dated 2018) can be followed below.

One assay deals with NK/T cells. Briefly: rHuADA2 rescue of adenosine-mediated inhibition of NK/T cell proliferation. The assay is classed as cell-based, human. Here is the method: A mixture of NK and T cells (NK/T) were prepared from healthy donor's peripheral blood mononuclear cells (PBMC). Briefly, 10×10^7 HumanPBMCs were cultured for 6-7 days in Stem cell growth medium (SCGM; Order No. 20802-0500, CellGenix, Freiburg, Germany) with 5% human serum from donors with blood type AB (human AB serum; Cat. No. 35-060-C1, Mediatech, Mannassas, Va.) in the presence of 20 ng/mL anti-CD3 eBioscience, San Diego, Calif.; Cat. No. 16-0039) and 500 IU/mL recombinant human interleukin 2 (rhIL-2; Cat. No. 200-02, PeproTech, Rocky Hill, N.J.). The cells were then cultured for an additional 2-3 weeks in SCGM in the presence of 500 IU/mL rhIL-2. NK/T cells cultured for 2-4 weeks were used in experiments.
NK/T cells (10,000 cells/well) were plated in 96 well white plates with clear bottoms in a total volume of 180 μL. The cells were treated with 20 μL rHuADA2 at concentrations resulting from 3-fold dilution series, to give a final rHuADA2 concentration of 100 nM, 30 nM, 10 nM, 3 nM, 1 nM, 0.3 nM, 0.1 nM, and 0.03 nm, and then each well also was treated with 20 μL of adenosine at 1 mM. After treatment, the NK/T cells were cultured, processed and luminescence measured as described above. The mean cell survival (%) was determined by comparison of the measured luminescence to control cells not treated with adenosine or rHuADA2.
Experiments also were performed to assess the effect of rHuADA2 to reverse adenosine-mediated inhibition of NK/T cell proliferation at various concentrations of adenosine. The experiments were conducted in a similar manner as described above, with final adenosine concentration of 1 mM, 100, 50, or 25 μM and final rHuADA2 concentration of 100 nM, 30 nM, 10 nM, 3 nM, 1 nM, 0.3 nM, 0.1 nM, and 0.03 nM.

For another assay, the system named is CT26 syngeneic tumors. Briefly: Tumor growth inhibition of combination therapy with anti-PD-1 and anti-CTLA4, CT26 peritibial tumor model. Conditions: study day 10. The assay is classed as in vivo, Balb/C mice. Here is the method: The murine CT26 syngeneic tumor model was used to compare the antitumor activity of combination therapy using PEGylated ADA2 with checkpoint inhibitors anti-PD-1 and anti-CTLA4 antibodies. CT26 syngeneic tumors were produced by injecting 2×10^5 CT26 cells in 0.05 mL injection volume per animal into the right peritibial muscle of male Balb/C mice. Tumor bearing mice were staged into treatment groups when the average tumor size reached 150 mm^3.
For treatment, animals were randomized into 8 groups (n=8/group) as follows: 1) saline vehicle control, 2) PEG-ADA2-K374D, 3) α-CTLA4 antibody (Clone 9D9, Cat. No. BE0164; BioXCell, West Lebanon, N.H., 4) α-PD-1 antibody (Clone RMP1-14, Cat. No. BE0146; BioXCell, West Lebanon, N.H.), 5) PEG-ADA2-K374D+α-CTLA4; 6) PEG-K374D+α-PD-1; 7) α-CTLA4+α-PD-1, or 8) Triple combo (PEG-ADA2-K374D+α-CTLA4+α-PD-1). PEG-ADA2-K374D was dosed intravenously 3× weekly at 10 mg/kg, α-CTLA4 was dosed intraperiotoneally biweekly at 4 mg/kg, and α-PD-1 was dosed intraperitoneally biweekly at 4 mg/kg. The sequence of dosing in the combination groups was as follows: PEG-ADA2-K374D followed by α-CTLA4 followed by α-PD-1.
Tumor volume was assessed twice weekly via ultrasound imaging using the Vevo2100 (Visual Sonics, Toronto, Canada) to determine tumor growth inhibition (TGI). Animals were anesthetized using light isoflurane anesthesia while the tumor volumes were measured. For tumor measurement, the region of interest was covered in ultrasound gel (Parker Laboratories, Fairfield, N.J.), and the RMV-716 (focal depth=17.5 mm) scan head was positioned directly over the region of interest. While in 2D-Mode, the approximate center of the tumor was located, and subsequently an image (˜150-200 frames) was captured using 3D-mode. Approximately 15-30 frames out of 150-200 frames were analyzed and a tumor volume calculated and expressed in mm^3. Tumor growth Inhibition (TGI) was calculated as described above.

B1: ADA2: wild-type human adenosine deaminase 2, mature form SEQ ID NO:5, homodimer (protein, listed as Homo sapiens)
chain: IDETRAHLLLKEKMMRLGGRLVLNTKEELANERLMTLKIAEMKEAMRTLIFPPSMHFFQAKHLIERSQVFNILRMMPKGAALHLHDIGIVTMDWLVRNVTYRPHCHICFTPRGIMQFRFAHPTPRPSEKCSKWILLEDYRKRVQNVTEFDDSLLRNFTLVTQHPEVIYTNQNVVWSKFETIFFTISGLIHYAPVFRDYVFRSMQEFYEDNVLYMEIRARLLPVYELSGEHHDEEWSVKTYQEVAQKFVETHPEFIGIKIIYSDHRSKDVAVIAESIRMAMGLRIKFPTVVAGFDLVGHEDTGHSLHDYKEALMIPAKDGVKLPYFFHAGETDWQGTSIDRNILDALMLNTTRIGHGFALSKHPAVRTYSWKKDIPIEVCPISNQVLKLVSDLRNHPVATLMATGHPMVISSDDPAMFGAKGLSYDFYEVFMGIGGMKADLRTLKQLAMNSIKYSTLLESEKNTFMEIWKKRWDKFIADVATK
modifications: ADA2 mature protein
Consider B1, for which the “MS % (mean survival)” value is listed as 81.7% in the assay on NK/T cells (ADA2 0.03 nM, 25 μM Adenosine); 71.2% in the assay with NK/T cells (ADA2 0.03 nM, 50 μM Adenosine); 45.9% with NK/T cells (ADA2 0.03 nM, 100 μM Adenosine); 15.6% with NK/T cells (ADA2 0.03 nM, 1 mM Adenosine); 89.6% in the assay with NK/T cells (ADA2 0.1 nM, 25 μM Adenosine); 76.6% in the assay on NK/T cells (ADA2 0.1 nM, 50 μM Adenosine). Further, the “MS % (mean survival)” value amounted to 43.8% in the assay on NK/T cells (ADA2 0.1 nM, 100 μM Adenosine); 16.3% in the assay with NK/T cells (ADA2 0.1 nM, 1 mM Adenosine); 90.5% in the assay with NK/T cells (ADA2 0.3 nM, 25 μM Adenosine); 64.8% with NK/T cells (ADA2 0.3 nM, 50 μM Adenosine); 57.8% in the assay with NK/T cells (ADA2 0.3 nM, 100 μM Adenosine); 18.3% in the assay on NK/T cells (ADA2 0.3 nM, 1 mM Adenosine). The “MS % (mean survival)” value in the assay on NK/T cells (ADA2 1 nM, 25 μM Adenosine) is reported as 99.3%; in the assay on NK/T cells (ADA2 1 nM, 50 μM Adenosine) it was 80.2%; in the assay on NK/T cells (ADA2 1 nM, 100 μM Adenosine), 71.7%; in the assay on NK/T cells (ADA2 1 nM, 1 mM Adenosine) it was 22.6%; in the assay on NK/T cells (ADA2 3 nM, 25 μM Adenosine) it was 107.4%; in the assay on NK/T cells (ADA2 3 nM, 50 μM Adenosine), 94%. For the same molecule, the “MS % (mean survival)” value with NK/T cells (ADA2 3 nM, 100 μM Adenosine) is recorded as 91.6%; with NK/T cells (ADA2 3 nM, 1 mM Adenosine), 41.4%; in the assay with NK/T cells (ADA2 10 nM, 25 μM Adenosine), 121.2%; in the assay on NK/T cells (ADA2 10 nM, 50 μM Adenosine), 105.9%; in the assay with NK/T cells (ADA2 10 nM, 100 μM Adenosine), 108.3%; in the assay on NK/T cells (ADA2 10 nM, 1 mM Adenosine) it was 67.1%. For the same molecule, the “MS % (mean survival)” value in the assay on NK/T cells (ADA2 30 nM, 25 μM Adenosine) is 117.2%; with NK/T cells (ADA2 30 nM, 50 μM Adenosine), 114.7%; with NK/T cells (ADA2 30 nM, 100 μM Adenosine), 114.4%; with NK/T cells (ADA2 30 nM, 1 mM Adenosine) it was 79.1%; with NK/T cells (ADA2 100 nM, 25 μM Adenosine), 120.6%; in the assay with NK/T cells (ADA2 100 nM, 50 μM Adenosine), 116.9%. Also, the “MS % (mean survival)” value in the assay with NK/T cells (ADA2 100 nM, 100 μM Adenosine) turned out to be 109%; in the assay with NK/T cells (ADA2 100 nM, 1 mM Adenosine) it was 96.3%.

B2: PEG-K374D: rHuADA2-K374D (SEQ ID NO:20) PEGylated on surface exposed lysines with linear PEG-20K (conjugate)
chain: B1 chain with K371D
modifications: linear PEG-20K on surface lysines; human ADA2 K371D, mature numbering
Turning to B2, in the assay with CT26 syngeneic tumors (PEG-ADA2-K374D 10 mg/kg IV 3x weekly, α-CTLA4 4 mg/kg IP biweekly, α-PD-1 4 mg/kg IP biweekly, ultrasound), the “Average Group Tumor Volume, SD10” value is 1499.11 mm^3. Besides, in the assay on CT26 syngeneic tumors (PEG-ADA2-K374D 10 mg/kg IV 3x weekly, α-CTLA4 4 mg/kg IP, α-PD-1 4 mg/kg IP biweekly), the “Tumor Growth Inhibition” value is reported as “exhibited tumor growth inhibition activity”. Further, in the assay on CT26 syngeneic tumors (compared to vehicle control), the TGI turned out to be 5%. Moreover, in the assay on CT26 syngeneic tumors (range of tumor volume of all animals in the group), the “Volume Range” value is on record as 1213-1594 mm^3.
